In experiment [1] the target is CFP-SelP' (Sec to Cys mutant of selenoprotein P fused to enhanced cyan fluorescence protein) (human) (UniProt P49908). Kind of experiment: FRET or BRET; sensitized emission method; HEK293T cells co-transfected with CFP (donor) and YFP (receptor) plasmids, confocal microscope 48 h after transfection, excitation 405 and 515 nm.
Experiment [2] has the same target. Kind of experiment: FRET or BRET; acceptor (receptor) photobleaching method; HEK293T cells co-transfected with CFP and YFP plasmids; ROI bleached at 515 nm, donor imaged at 405 nm excitation; E = 1 - I(prebleaching)/I(postbleaching).
The target in experiment [3] is CFP-SelP-H (His-rich domain of selenoprotein P fused to CFP) (human) (UniProt P49908). The description is as above.
Experiment [4] addresses SelP-H (His-rich domain of selenoprotein P), purified (human) (UniProt P49908). Briefly: ITC; MicroCal iTC-200, 25 °C, Tris buffer (50 mM, pH 7.4); 1.3 mM Tub-C titrated into 228 μM SelP-H, 20 injections of 2 μL; sequential binding model (n = 2).

Data on three substances can be found in PMC4100148.

For “YFP-Tub (α-tubulin fused to yellow fluorescence protein) (from UniProt Q71U36 1-451) (natural protein)”, in experiment [1], the FRET efficiency E (average) is 21.3%, the FRET efficiency E (cell 1) stood at 19.7%, the FRET efficiency E (cell 2) came to 18.7% and the FRET efficiency E (cell 3) worked out at 32.6%. Besides, in experiment [1], the FRET efficiency E (cell 4) amounted to 17.7% and the FRET efficiency E (cell 5) was 18%. In experiment [2], the FRET efficiency E (average) was determined as 21.8%, the FRET efficiency E (cell 1) is 17.6%, the FRET efficiency E (cell 2) amounted to 14.1% and the FRET efficiency E (cell 3) was 12.2%. Further, in experiment [2], the FRET efficiency E (cell 4) was 31.5%, the FRET efficiency E (cell 5) was found to be 20%, the FRET efficiency E (cell 6) turned out to be 26.7% and the FRET efficiency E (cell 7) was determined as 19.2%. Also, in experiment [2], the FRET efficiency E (cell 8) came out at 17.9%, the FRET efficiency E (cell 9) is 35.6%, the FRET efficiency E (cell 10) was 20.2% and the FRET efficiency E (cell 11) was found to be 25%.

Substance “YFP-Tub-C (C-terminal domain of α-tubulin, the last 42 residues, fused to YFP) (from UniProt Q71U36 1-451) (domain or fragment)” displayed an FRET efficiency E in experiment [3] of 22.8%.

For the substance “Tub-C (the last 42 residues of α-tubulin), purified (from UniProt Q71U36 1-451) (domain or fragment)”, in experiment [4], the association constant K1 (sequential binding model, first site) stood at 2100 M⁻¹; the association constant K2 (sequential binding model, second site) came out at 1500 M⁻¹; the dH1 (sequential binding model, first site) is -1.8 kcal/mol; the dH2 (sequential binding model, second site) turned out to be 6.9 kcal/mol. In addition, the stoichiometry N in experiment [4] worked out at 2.
